The term Kd denotes the constant that tells how readily two partners part at equilibrium.

Data on nine molecules can be found in paper PMC7585439, “UvrD helicase–RNA polymerase interactions are governed by UvrD’s carboxy-terminal Tudor domain” (Communications Biology, 2020).

Data set [1] deals with T1, UvrD-CTD (Escherichia coli, UniProt P03018 645-720).
T1 sequence: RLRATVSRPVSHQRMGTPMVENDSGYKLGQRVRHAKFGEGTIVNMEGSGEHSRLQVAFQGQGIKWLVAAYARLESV
The data set can be described thus: BLI; NMR titrations at 298 K: UvrD-CTD in UvrD NMR buffer (20 mM K-phosphate, 50 mM KCl, 5 mM DTT, pH 6.5, 10% D2O), Mfd-RID in PBS pH 7.4 with 10% D2O; BLI buffer not given in the material. Particulars: protein: recombinant, tags: N-terminal His6, uncleavable, label: biotin. For orientation: Biolayer interferometry detects binding as a change in optical thickness at a sensor tip.

Data set [2] concerns the target T1, UvrD-CTD. As to the kind of experiment: NMR titration; up to 2 molar equivalents DNA; NMR titrations at 298 K: UvrD-CTD in UvrD NMR buffer (20 mM K-phosphate, 50 mM KCl, 5 mM DTT, pH 6.5, 10% D2O), Mfd-RID in PBS pH 7.4 with 10% D2O; BLI buffer not given in the material. The following applies: protein: recombinant, tags: N-terminal His6, uncleavable.
The target in the next data set is Mfd-RID (Escherichia coli, UniProt P30958 472-547). The data set can be described thus: NMR titration; 2 molar equivalents DNA; NMR titrations at 298 K: UvrD-CTD in UvrD NMR buffer (20 mM K-phosphate, 50 mM KCl, 5 mM DTT, pH 6.5, 10% D2O), Mfd-RID in PBS pH 7.4 with 10% D2O; BLI buffer not given in the material. Particulars: protein: recombinant; tags: His6-SUMO removed by SenP1; single strand.

Data set [3] concerns the target T2, RNA polymerase core enzyme (subunits α2ββ'ω) (E. coli, UniProt P0A7Z4 1-329; P0A8V2 1-1342; P0A8T7 1-1407; P0A800 1-91).
T2 construct: RNA polymerase subunit alpha, E. coli; RNA polymerase subunit beta, E. coli; RNA polymerase subunit beta', E. coli; RNA polymerase subunit omega, E. coli; also called RNAP core-enzyme; source: expressed from plasmid pIA900, purified as by Svetlov and Artsimovitch with an added SEC step (Superose6); copies: 2 + 1 + 1 + 1
As to the kind of experiment: BLI; Octet RED96, 303 K; biotinylated ligand on streptavidin biosensors, analyte in a dose series, 0.1% BSA; association and dissociation 1000 s each; which partner was immobilised is not told. Particulars: both partners purified.

[4] abbreviates: self-complementary 28 bp duplex of 2 identical strands, 3' overhangs 7 nt, snap cooled after dissolving.

T2 sequence (P0A7Z4 whole entry, chain 1 of 4): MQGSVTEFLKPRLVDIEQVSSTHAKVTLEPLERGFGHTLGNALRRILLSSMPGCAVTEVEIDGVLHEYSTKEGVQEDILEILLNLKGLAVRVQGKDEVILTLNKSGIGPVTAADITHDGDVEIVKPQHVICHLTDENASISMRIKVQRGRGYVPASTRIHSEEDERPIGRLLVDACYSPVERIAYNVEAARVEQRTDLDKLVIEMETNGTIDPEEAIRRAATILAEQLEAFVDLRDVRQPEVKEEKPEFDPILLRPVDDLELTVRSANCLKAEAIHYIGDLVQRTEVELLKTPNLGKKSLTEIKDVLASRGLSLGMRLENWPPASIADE
T2 sequence (P0A8V2 whole entry, chain 2 of 4): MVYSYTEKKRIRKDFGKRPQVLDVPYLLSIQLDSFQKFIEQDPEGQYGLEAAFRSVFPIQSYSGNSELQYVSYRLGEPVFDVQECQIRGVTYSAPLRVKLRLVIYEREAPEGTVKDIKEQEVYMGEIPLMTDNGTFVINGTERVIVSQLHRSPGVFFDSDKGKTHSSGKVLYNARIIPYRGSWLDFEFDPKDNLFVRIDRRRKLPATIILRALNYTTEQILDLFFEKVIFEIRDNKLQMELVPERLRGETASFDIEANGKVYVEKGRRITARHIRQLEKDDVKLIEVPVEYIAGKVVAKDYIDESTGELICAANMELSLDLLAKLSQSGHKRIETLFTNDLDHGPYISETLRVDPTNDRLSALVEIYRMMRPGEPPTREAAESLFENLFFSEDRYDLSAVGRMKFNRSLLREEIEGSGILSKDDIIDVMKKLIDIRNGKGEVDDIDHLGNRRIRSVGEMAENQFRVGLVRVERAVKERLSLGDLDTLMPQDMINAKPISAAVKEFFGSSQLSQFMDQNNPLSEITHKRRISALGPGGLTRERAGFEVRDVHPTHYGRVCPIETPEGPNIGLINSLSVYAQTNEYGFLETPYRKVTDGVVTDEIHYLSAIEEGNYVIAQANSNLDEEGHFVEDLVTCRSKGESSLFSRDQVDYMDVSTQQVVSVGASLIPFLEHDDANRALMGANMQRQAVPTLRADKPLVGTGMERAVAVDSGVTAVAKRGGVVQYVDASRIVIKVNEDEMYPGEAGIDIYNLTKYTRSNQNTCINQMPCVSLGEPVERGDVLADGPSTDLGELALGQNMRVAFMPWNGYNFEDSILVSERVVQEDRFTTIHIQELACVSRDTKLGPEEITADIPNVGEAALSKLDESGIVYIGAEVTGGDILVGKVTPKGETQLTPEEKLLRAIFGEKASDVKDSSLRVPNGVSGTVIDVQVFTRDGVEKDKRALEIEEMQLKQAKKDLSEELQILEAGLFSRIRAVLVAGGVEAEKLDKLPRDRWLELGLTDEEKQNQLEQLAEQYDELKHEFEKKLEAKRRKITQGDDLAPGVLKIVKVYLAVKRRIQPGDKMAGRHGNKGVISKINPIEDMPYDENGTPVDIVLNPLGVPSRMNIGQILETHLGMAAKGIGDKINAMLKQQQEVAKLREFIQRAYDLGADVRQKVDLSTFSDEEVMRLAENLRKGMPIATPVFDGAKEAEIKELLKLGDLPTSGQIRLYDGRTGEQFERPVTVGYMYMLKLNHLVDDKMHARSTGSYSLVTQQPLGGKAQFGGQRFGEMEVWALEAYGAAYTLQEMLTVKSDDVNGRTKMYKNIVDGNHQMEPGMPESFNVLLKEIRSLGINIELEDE
T2 sequence (P0A8T7 whole entry, chain 3 of 4): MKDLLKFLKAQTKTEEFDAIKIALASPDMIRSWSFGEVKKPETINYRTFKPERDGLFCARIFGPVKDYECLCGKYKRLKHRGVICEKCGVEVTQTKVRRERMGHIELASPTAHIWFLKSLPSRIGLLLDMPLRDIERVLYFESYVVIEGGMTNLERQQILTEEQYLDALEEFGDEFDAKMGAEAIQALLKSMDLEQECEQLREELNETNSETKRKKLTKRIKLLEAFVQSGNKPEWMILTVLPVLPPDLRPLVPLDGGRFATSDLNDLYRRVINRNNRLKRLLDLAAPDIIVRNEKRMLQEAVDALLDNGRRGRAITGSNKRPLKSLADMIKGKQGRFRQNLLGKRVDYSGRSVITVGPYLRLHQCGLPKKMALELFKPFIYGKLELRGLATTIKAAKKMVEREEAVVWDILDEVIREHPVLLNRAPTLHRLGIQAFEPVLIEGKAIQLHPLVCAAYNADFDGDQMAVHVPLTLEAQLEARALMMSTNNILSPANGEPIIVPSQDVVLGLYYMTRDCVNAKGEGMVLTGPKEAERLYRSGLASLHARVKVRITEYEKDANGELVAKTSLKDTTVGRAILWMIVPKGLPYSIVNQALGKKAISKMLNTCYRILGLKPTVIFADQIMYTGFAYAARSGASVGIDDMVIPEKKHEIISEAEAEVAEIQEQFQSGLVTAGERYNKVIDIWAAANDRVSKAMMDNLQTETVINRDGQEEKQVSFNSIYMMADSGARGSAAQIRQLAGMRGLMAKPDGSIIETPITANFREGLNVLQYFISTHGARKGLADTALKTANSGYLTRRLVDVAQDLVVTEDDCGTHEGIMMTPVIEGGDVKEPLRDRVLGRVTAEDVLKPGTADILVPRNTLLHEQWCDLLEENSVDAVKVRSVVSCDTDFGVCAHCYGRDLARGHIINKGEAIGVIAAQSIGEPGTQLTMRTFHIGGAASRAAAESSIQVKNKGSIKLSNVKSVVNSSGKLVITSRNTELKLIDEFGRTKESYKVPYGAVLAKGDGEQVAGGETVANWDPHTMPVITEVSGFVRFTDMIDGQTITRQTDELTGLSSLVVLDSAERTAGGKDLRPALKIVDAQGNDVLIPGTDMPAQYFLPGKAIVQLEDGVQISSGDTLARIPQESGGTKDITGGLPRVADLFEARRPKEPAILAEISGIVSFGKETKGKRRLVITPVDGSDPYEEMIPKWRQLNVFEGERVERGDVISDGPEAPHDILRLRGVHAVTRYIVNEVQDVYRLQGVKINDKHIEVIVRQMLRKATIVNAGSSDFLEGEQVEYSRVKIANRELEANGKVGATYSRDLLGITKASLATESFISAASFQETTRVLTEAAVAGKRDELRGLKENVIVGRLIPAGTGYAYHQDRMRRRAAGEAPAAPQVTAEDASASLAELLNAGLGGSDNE
T2 sequence (P0A800 whole entry, chain 4 of 4): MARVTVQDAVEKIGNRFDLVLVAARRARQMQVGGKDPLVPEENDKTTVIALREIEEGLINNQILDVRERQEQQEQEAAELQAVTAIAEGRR

B1: biotinylated 35mer dsDNA (dsDNA)
DNA 1: CGAGCACTGCACTCGAGTGCAGTGCTCGTTGTTAT
DNA 2: CGAGCACTGCACTCGAGTGCAGTGCTCGTTGTTAT
modifications: biotin (position not given)
B1: in the data set with UvrD-CTD [1] (setting [4]), the Kd is 1900 ± 170 nM.

B2: 35mer dsDNA (dsDNA)
DNA 1: CGAGCACTGCACTCGAGTGCAGTGCTCGTTGTTAT
DNA 2: CGAGCACTGCACTCGAGTGCAGTGCTCGTTGTTAT
With B2, in the data set with UvrD-CTD [2] (setting [4]), the binding result is on record as “binds”.

For GCAGTGCTCGTTTTTTT (ssDNA) [17mer ssDNA], the binding result is “binds” with UvrD-CTD [2] (single strand) and “no binding” with Mfd-RID.

B3: Mfd RNAP Interaction Domain (Mfd-RID, residues 472-547; Domain 4) (domain or fragment, E. coli, UniProt P30958 472-547, looked up)
chain: RNLAELHIGQPVVHLEHGVGRYAGMTTLEAGGITGEYLMLTYANDAKLYVPVSSLHLISRYAGGAEENAPLHKLGG
notes: Mfd (Transcription-Repair Coupling Factor, TRCF), E. coli, residues 472-547, comprising Domain 4; Used [U-15N] labelled in the NMR experiments; source: E. coli BL21 Star (λDE3), purified (Ni-NTA, SenP1 cleavage, second Ni-NTA, SEC); not shown: His6, N-terminal, cleaved; Sumo, N-terminal, cleaved
Molecule B3 came in with a Kd in data set [3] of 250 ± 52 nM.

B4: UvrD helicase, full-length (1-720) (enzyme, E. coli, UniProt P03018 1-720, looked up)
chain: MDVSYLLDSLNDKQREAVAAPRSNLLVLAGAGSGKTRVLVHRIAWLMSVENCSPYSIMAVTFTNKAAAEMRHRIGQLMGTSQGGMWVGTFHGLAHRLLRAHHMDANLPQDFQILDSEDQLRLLKRLIKAMNLDEKQWPPRQAMWYINSQKDEGLRPHHIQSYGNPVEQTWQKVYQAYQEACDRAGLVDFAELLLRAHELWLNKPHILQHYRERFTNILVDEFQDTNNIQYAWIRLLAGDTGKVMIVGDDDQSIYGWRGAQVENIQRFLNDFPGAETIRLEQNYRSTSNILSAANALIENNNGRLGKKLWTDGADGEPISLYCAFNELDEARFVVNRIKTWQDNGGALAECAILYRSNAQSRVLEEALLQASMPYRIYGGMRFFERQEIKDALSYLRLIANRNDDAAFERVVNTPTRGIGDRTLDVVRQTSRDRQLTLWQACRELLQEKALAGRAASALQRFMELIDALAQETADMPLHVQTDRVIKDSGLRTMYEQEKGEKGQTRIENLEELVTATRQFSYNEEDEDLMPLQAFLSHAALEAGEGQADTWQDAVQLMTLHSAKGLEFPQVFIVGMEEGMFPSQMSLDEGGRLEEERRLAYVGVTRAMQKLTLTYAETRRLYGKEVYHRPSRFIGELPEECVEEVRLRATVSRPVSHQRMGTPMVENDSGYKLGQRVRHAKFGEGTIVNMEGSGEHSRLQVAFQGQGIKWLVAAYARLESV
notes: UvrD helicase (Helicase II), E. coli, full-length, residues 1-720; The His6 tag is called uncleavable; Used [U-2H,15N] labelled in the NMR experiments; also called UvrD-FL; UvrD full-length; source: E. coli BL21(λDE3) pLysS, purified (Ni-NTA, SEC); not shown: His6, N-terminal, kept
Consider B4, for which the Kd in data set [3] came out at 1000 ± 130 nM.

B5: Mfd full-length (1-1148) (enzyme, E. coli, UniProt P30958 1-1148, looked up)
chain: MPEQYRYTLPVKAGEQRLLGELTGAACATLVAEIAERHAGPVVLIAPDMQNALRLHDEISQFTDQMVMNLADWETLPYDSFSPHQDIISSRLSTLYQLPTMQRGVLIVPVNTLMQRVCPHSFLHGHALVMKKGQRLSRDALRTQLDSAGYRHVDQVMEHGEYATRGALLDLFPMGSELPYRLDFFDDEIDSLRVFDVDSQRTLEEVEAINLLPAHEFPTDKAAIELFRSQWRDTFEVKRDPEHIYQQVSKGTLPAGIEYWQPLFFSEPLPPLFSYFPANTLLVNTGDLETSAERFQADTLARFENRGVDPMRPLLPPQSLWLRVDELFSELKNWPRVQLKTEHLPTKAANANLGFQKLPDLAVQAQQKAPLDALRKFLETFDGPVVFSVESEGRREALGELLARIKIAPQRIMRLDEASDRGRYLMIGAAEHGFVDTVRNLALICESDLLGERVARRRQDSRRTINPDTLIRNLAELHIGQPVVHLEHGVGRYAGMTTLEAGGITGEYLMLTYANDAKLYVPVSSLHLISRYAGGAEENAPLHKLGGDAWSRARQKAAEKVRDVAAELLDIYAQRAAKEGFAFKHDREQYQLFCDSFPFETTPDQAQAINAVLSDMCQPLAMDRLVCGDVGFGKTEVAMRAAFLAVDNHKQVAVLVPTTLLAQQHYDNFRDRFANWPVRIEMISRFRSAKEQTQILAEVAEGKIDILIGTHKLLQSDVKFKDLGLLIVDEEHRFGVRHKERIKAMRANVDILTLTATPIPRTLNMAMSGMRDLSIIATPPARRLAVKTFVREYDSMVVREAILREILRGGQVYYLYNDVENIQKAAERLAELVPEARIAIGHGQMRERELERVMNDFHHQRFNVLVCTTIIETGIDIPTANTIIIERADHFGLAQLHQLRGRVGRSHHQAYAWLLTPHPKAMTTDAQKRLEAIASLEDLGAGFALATHDLEIRGAGELLGEEQSGSMETIGFSLYMELLENAVDALKAGREPSLEDLTSQQTEVELRMPSLLPDDFIPDVNTRLSFYKRIASAKTENELEEIKVELIDRFGLLPDPARTLLDIARLRQQAQKLGIRKLEGNEKGGVIEFAEKNHVNPAWLIGLLQKQPQHYRLDGPTRLKFIQDLSERKTRIEWVRQFMRELEENAIA
notes: Mfd (Transcription-Repair Coupling Factor, TRCF), E. coli, full-length, residues 1-1148; Construct bought from Genscript; Used [U-2H,15N] labelled in the NMR experiments; also called Transcription-Repair Coupling Factor; TRCF; source: E. coli BL21 Star (λDE3), purified (Ni-NTA, SEC)
B5 returned a Kd in data set [3] of 310 ± 14 nM.

B6: UvrD-ΔCTD (1-664) (domain or fragment, E. coli, UniProt P03018 1-664, looked up)
chain: MDVSYLLDSLNDKQREAVAAPRSNLLVLAGAGSGKTRVLVHRIAWLMSVENCSPYSIMAVTFTNKAAAEMRHRIGQLMGTSQGGMWVGTFHGLAHRLLRAHHMDANLPQDFQILDSEDQLRLLKRLIKAMNLDEKQWPPRQAMWYINSQKDEGLRPHHIQSYGNPVEQTWQKVYQAYQEACDRAGLVDFAELLLRAHELWLNKPHILQHYRERFTNILVDEFQDTNNIQYAWIRLLAGDTGKVMIVGDDDQSIYGWRGAQVENIQRFLNDFPGAETIRLEQNYRSTSNILSAANALIENNNGRLGKKLWTDGADGEPISLYCAFNELDEARFVVNRIKTWQDNGGALAECAILYRSNAQSRVLEEALLQASMPYRIYGGMRFFERQEIKDALSYLRLIANRNDDAAFERVVNTPTRGIGDRTLDVVRQTSRDRQLTLWQACRELLQEKALAGRAASALQRFMELIDALAQETADMPLHVQTDRVIKDSGLRTMYEQEKGEKGQTRIENLEELVTATRQFSYNEEDEDLMPLQAFLSHAALEAGEGQADTWQDAVQLMTLHSAKGLEFPQVFIVGMEEGMFPSQMSLDEGGRLEEERRLAYVGVTRAMQKLTLTYAETRRLYGKEVYHRPSRFIGELPEECVEEVRLRATVSRPVSHQRMGTPMV
notes: UvrD helicase (Helicase II), E. coli, residues 1-664; made by inserting a stop codon; Probably the His6 full-length construct; also called truncated UvrD lacking the CTD; source: E. coli BL21(λDE3) pLysS, purified (Ni-NTA, SEC)
Regarding B6, the Kd in data set [3] stood at 1900 ± 150 nM.

B7: UvrD carboxy-terminal region (UvrD-CTD, residues 645-720) (domain or fragment, E. coli, UniProt P03018 645-720, looked up)
chain: RLRATVSRPVSHQRMGTPMVENDSGYKLGQRVRHAKFGEGTIVNMEGSGEHSRLQVAFQGQGIKWLVAAYARLESV
notes: UvrD helicase (Helicase II), E. coli, residues 645-720; The His6 tag is called uncleavable; Used [U-15N] labelled in the NMR experiments; source: E. coli BL21(λDE3) pLysS, purified (Ni-NTA, SEC); not shown: His6, N-terminal, kept
As to B7, the Kd in data set [3] came to 77 ± 0.3 nM.

With GCAGTGCTCGTTTTTTT (ssDNA, biotin (position not given)) [biotinylated 17mer ssDNA], the Kd with UvrD-CTD [1] (single strand) turned out to be 3800 ± 470 nM.
